Source: the supplement of paper PMC10724198
Several values for one entry are separate records, joined by “and”; a condition that tells them apart may be missing. Identical values can stand only once. ± gives the standard deviation of the averaged measurements.

system: Saccharomyces cerevisiae; test: protein stability index of tFT-peptide fusion (C-terminal peptide) (PSI (0-1 scale)); higher = more stable (slower turnover); details: genetic background: wild type; temperature: 30 C
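Throughout, for protein stability index of tFT-peptide fusion (C-terminal peptide): PSI is a weighted mean of sequencing reads over stability bins, variants kept only with over 10 reads, mCherry proximal and sfGFP distal, peptide attached via GGGS linker.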
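Throughout, for protein stability index of tFT-peptide fusion in deletion strain of DAS1: PSI is a weighted mean of each variant's read distribution over the sorted stability bins, computed only for variants having over 10 reads in total.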
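Throughout, for protein stability index of tFT-peptide fusion in deletion strain of DOA10: PSI per variant is the weighted mean of its sequencing read distribution over the sorted stability bins, counting only variants with over 10 reads summed across bins.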
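Throughout, for protein stability index of tFT-peptide fusion in wild type: PSI derived as read-weighted mean over the 8 sorting bins, only variants exceeding 10 total reads kept, mCherry placed adjacent to the peptide and sfGFP distal.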

Sequence | protein stability index
RLIQPLPVQFLN | 0.0935 ± 0.0062

system: Saccharomyces cerevisiae; test: protein stability index of tFT-peptide fusion in deletion strain of DAS1 (PSI (0-1 scale)); higher = more stable (slower turnover); details: not given
Protocol: (§1)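 MPS profiling in S. cerevisiae of two library types built from selected 12-aa C-degron peptides (IN1, IN2, LN1, LN3, VN2, R1-R5, W1-W3, Atg1 and Rpa12 C-termini): saturation mutagenesis libraries and C-terminal +1 capping libraries (13 aa). Each peptide is fused to the C-terminus of a sfGFP-mCherry timer, after a GGGS linker. Cells are FACS-sorted into 8 mCherry/sfGFP bins and sequenced. PSI runs from 0 (unstable) to 1 (stable), measured once in wild type and in the das1Δ or doa10Δ background.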

Sequence | protein stability index
RLIQPLPRQFLN | 0.596
RLIQPLPSQFLN | 0.613
RLIQPLPVQCLN | 0.478
RLIQPLPVQFAN | 0.62
RLIQPLPVQFGN | 0.611
RLIQPLPVQFLN | 0.672 and 0.598
RLIQPLPVQFLNE | 0.676
RLIQPLPVQFLNQ | 0.673
RLIQPLPVQFLW | 0.565
RLIQPLPVQLLN | 0.577
RLIQPLVVQFLN | 0.587
RLIVPLPVQFLN | 0.607
RLPQPLPVQFLN | 0.631
RSMRWTFRYWVN | 0.659
SVVYLSCVACIN | 0.0314
TKHKKGQKQKIN | 0.639
TLIQPLPVQFLN | 0.576
VEGAVGGWRLVG | 0.685
VFGAVGGWRLVG | 0.698

Sequence | protein stability index
VHGAVGGWRLVG | 0.692
VMGAVGGWRLVG | 0.681
VRGAAGGWRLVG | 0.689
VRGADGGWRLVG | 0.685
VRGAPGGWRLVG | 0.684
VRGAVGGCRLVG | 0.692
VRGAVGGERLVG | 0.698
VRGAVGGGRLVG | 0.682
VRGAVGGWFLVG | 0.673
VRGAVGGWNLVG | 0.679
VRGAVGGWRGVG | 0.673
VRGAVGGWRLLG | 0.658
VRGAVGGWRLNG | 0.679
VRGAVGGWRLQG | 0.649
VRGAVGGWRLRG | 0.679
VRGAVGGWRLVE | 0.663
VRGAVGGWRLVGH | 0.671
VRGAVGGWRLVGL | 0.675
VRGAVGGWRLVI | 0.685

Sequence | protein stability index
VRGAVGGWRLVM | 0.661
VRGAVGGWRLVP | 0.686
VRGAVGGWRLVT | 0.675
VRGAVGGWRLVY | 0.636
VRGAVGGWRVVG | 0.654
VRGAVGKWRLVG | 0.68
VRGAVGMWRLVG | 0.691
VRGAVQGWRLVG | 0.682
VRGDVGGWRLVG | 0.679
VRGKVGGWRLVG | 0.67
VRGLVGGWRLVG | 0.678
VRKAVGGWRLVG | 0.665
VRMAVGGWRLVG | 0.672
VRSAVGGWRLVG | 0.685
WLIQPLPVQFLN | 0.643
WRGAVGGWRLVG | 0.655
YSLAASFWRVVG | 0.67
YTSCGYKFRTNN | 0.691

system: Saccharomyces cerevisiae; test: protein stability index of tFT-peptide fusion in wild type (PSI (0-1 scale)); higher = more stable (slower turnover); details: genetic background: wild type
Protocol: as §1

Sequence | protein stability index
AGTLPMCPLLLR | 0.461
AIGLPMCPLLLR | 0.297
AITLPDCPLLLR | 0.437
AITLPHCPLLLR | 0.264
AITLPICPLLLR | 0.194
AITLPMAPLLLR | 0.253
AITLPMCPILLR | 0.216
AITLPMCPLCLR | 0.556
AITLPMCPLLLP | 0.627
AITLPMCPLLLRL | 0.12
AITLPMCPLLLRY | 0.152
AITLPMCPLWLR | 0.239
AITLPMCPNLLR | 0.645
AITLPMCPTLLR | 0.581
AITLPMNPLLLR | 0.392
AITLPMWPLLLR | 0.124
AITLTMCPLLLR | 0.386
AITLYMCPLLLR | 0.309
AITPPMCPLLLR | 0.458
AKTLPMCPLLLR | 0.352
ALTLPMCPLLLR | 0.21
AVTRLDAIYFRI | 0.317

Sequence | protein stability index
AWTLPMCPLLLR | 0.111
CLISLPILLFFR | 0.0542
CLRSLPILLFFR | 0.0732
CLSSLPILLFFR | 0.0943
CLVNLPILLFFR | 0.0622
CLVSLGILLFFR | 0.276
CLVSLPDLLFFR | 0.188
CLVSLPGLLFFR | 0.126
CLVSLPHLLFFR | 0.0749
CLVSLPILKFFR | 0.63
CLVSLPILLFFA | 0.256
CLVSLPILLFFRD | 0.103
CLVSLPILLFFRH | 0.0656
CLVSLPILLFFRP | 0.068
CLVSLPILLFFRS | 0.0709
CLVSLPILLFLR | 0.0512
CLVSLPILLQFR | 0.344
CLVSLPILRFFR | 0.612
CLVSLPILYFFR | 0.468
CLVSLPLLLFFR | 0.0578
CLVSLPRLLFFR | 0.0729
CNVSLPILLFFR | 0.0527

Sequence | protein stability index
CWVSLPILLFFR | 0.0534
ELYMCSVGCWFR | 0.388
ESLRVLLPLYFR | 0.308
GEYMCSVGCWFR | 0.425
GGYMCSVGCWFR | 0.439
GLGMCSVGCWFR | 0.336
RLIQPLPRQFLN | 0.19
RLIQPLPSQFLN | 0.106
RLIQPLPVQCLN | 0.173
RLIQPLPVQFAN | 0.353
RLIQPLPVQFGN | 0.63
RLIQPLPVQFLN | 0.0747 and 0.0662
RLIQPLPVQFLNE | 0.659
RLIQPLPVQFLNQ | 0.65
RLIQPLPVQFLW | 0.621
RLIQPLPVQLLN | 0.0606
RLIQPLVVQFLN | 0.045
RLIVPLPVQFLN | 0.0525
RLPQPLPVQFLN | 0.118
RSMRWTFRYWVN | 0.0703
SVVYLSCVACIN | 0.0146
TKHKKGQKQKIN | 0.118

Sequence | protein stability index
TLIQPLPVQFLN | 0.102
VEGAVGGWRLVG | 0.159
VFGAVGGWRLVG | 0.134
VHGAVGGWRLVG | 0.136
VMGAVGGWRLVG | 0.118
VRGAAGGWRLVG | 0.164
VRGADGGWRLVG | 0.438
VRGAPGGWRLVG | 0.165
VRGAVGGCRLVG | 0.633
VRGAVGGERLVG | 0.65
VRGAVGGGRLVG | 0.564
VRGAVGGWFLVG | 0.626
VRGAVGGWNLVG | 0.198
VRGAVGGWRGVG | 0.602
VRGAVGGWRLLG | 0.164
VRGAVGGWRLNG | 0.234
VRGAVGGWRLQG | 0.153
VRGAVGGWRLRG | 0.636
VRGAVGGWRLVE | 0.726
VRGAVGGWRLVGH | 0.668
VRGAVGGWRLVGL | 0.665
VRGAVGGWRLVI | 0.215

Sequence | protein stability index
VRGAVGGWRLVM | 0.321
VRGAVGGWRLVP | 0.436
VRGAVGGWRLVT | 0.184
VRGAVGGWRLVY | 0.654
VRGAVGGWRVVG | 0.259
VRGAVGKWRLVG | 0.172
VRGAVGMWRLVG | 0.169
VRGAVQGWRLVG | 0.157
VRGDVGGWRLVG | 0.108
VRGKVGGWRLVG | 0.129
VRGLVGGWRLVG | 0.154
VRKAVGGWRLVG | 0.18
VRMAVGGWRLVG | 0.132
VRSAVGGWRLVG | 0.141
WLIQPLPVQFLN | 0.0761
WRGAVGGWRLVG | 0.174
YSLAASFWRVVG | 0.128
YTSCGYKFRTNN | 0.212

system: Saccharomyces cerevisiae; test: protein stability index of tFT-peptide fusion in deletion strain of DOA10 (PSI (0-1 scale)); higher = more stable (slower turnover); details: not given
Protocol: as §1

Sequence | protein stability index
AGTLPMCPLLLR | 0.671
AIGLPMCPLLLR | 0.653
AITLPDCPLLLR | 0.711
AITLPHCPLLLR | 0.713
AITLPICPLLLR | 0.667
AITLPMAPLLLR | 0.666
AITLPMCPILLR | 0.619
AITLPMCPLCLR | 0.702
AITLPMCPLLLP | 0.675
AITLPMCPLLLRL | 0.563
AITLPMCPLLLRY | 0.633
AITLPMCPLWLR | 0.695
AITLPMCPNLLR | 0.672
AITLPMCPTLLR | 0.678
AITLPMNPLLLR | 0.685
AITLPMWPLLLR | 0.673
AITLTMCPLLLR | 0.667
AITLYMCPLLLR | 0.628
AITPPMCPLLLR | 0.686
AKTLPMCPLLLR | 0.672
ALTLPMCPLLLR | 0.646
AVTRLDAIYFRI | 0.696
AWTLPMCPLLLR | 0.665
CLISLPILLFFR | 0.552
CLRSLPILLFFR | 0.619

Sequence | protein stability index
CLSSLPILLFFR | 0.641
CLVNLPILLFFR | 0.597
CLVSLGILLFFR | 0.436
CLVSLPDLLFFR | 0.709
CLVSLPGLLFFR | 0.656
CLVSLPHLLFFR | 0.67
CLVSLPILKFFR | 0.666
CLVSLPILLFFA | 0.346
CLVSLPILLFFRD | 0.594
CLVSLPILLFFRH | 0.577
CLVSLPILLFFRP | 0.563
CLVSLPILLFFRS | 0.533
CLVSLPILLFLR | 0.564
CLVSLPILLQFR | 0.642
CLVSLPILRFFR | 0.657
CLVSLPILYFFR | 0.605
CLVSLPLLLFFR | 0.606
CLVSLPRLLFFR | 0.664
CNVSLPILLFFR | 0.642
CWVSLPILLFFR | 0.54
ELYMCSVGCWFR | 0.651
ESLRVLLPLYFR | 0.683
GEYMCSVGCWFR | 0.667
GGYMCSVGCWFR | 0.687
GLGMCSVGCWFR | 0.674

system: Saccharomyces cerevisiae; test: protein stability index of tFT-peptide fusion (C-terminal peptide) (PSI (0-1 scale)); higher = more stable (slower turnover); details: genetic background: cdc34-1; temperature: 37 C
Protocol: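 MPS profiling in S. cerevisiae of the tFT-X12 degron library: putative degron peptides plus stable controls, 12 aa, fused to the C-terminus of a sfGFP-mCherry timer. Cells are FACS-sorted into 8 mCherry/sfGFP bins and deep-sequenced. PSI runs from 0 (unstable) to 1 (stable). Backgrounds are wild type, das1Δ and doa10Δ at 30 °C, and wild type, das1Δ, cdc34-1 and cdc53-1 at 37 °C; 2-3 technical replicates each.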

Sequence | protein stability index
RLIQPLPVQFLN | 0.2752 ± 0.002

same assay, conditions: genetic background: cdc53-1; temperature: 37 C

Sequence | protein stability index
RLIQPLPVQFLN | 0.644 ± 0.089

same assay, conditions: genetic background: das1 deletion; temperature: 30 C

Sequence | protein stability index
RLIQPLPVQFLN | 0.616 ± 0.026

same assay, conditions: genetic background: das1 deletion; temperature: 37 C

Sequence | protein stability index
RLIQPLPVQFLN | 0.732 ± 0.066

same assay, conditions: genetic background: doa10 deletion; temperature: 30 C

Sequence | protein stability index
RLIQPLPVQFLN | 0.0708 ± 0.018

same assay, conditions: genetic background: wild type; temperature: 30 C

Sequence | protein stability index
RLIQPLPVQFLN | 0.0754 ± 0.0037

same assay, conditions: genetic background: wild type; temperature: 37 C

Sequence | protein stability index
RLIQPLPVQFLN | 0.0963 ± 0.012
